The values below come from IntAct's records for PubMed 11587540.

Sequences and labels used below:
B1: Emerin (Homo sapiens), P50402 (parent)
chain: MDNYADLSDTELTTLLRRYNIPHGPVVGSTRRLYEKKIFEYETQRRRLSPPSSSAASSYSFSDLNSTRGDADMYDLPKKEDALLYQSKGYNDDYYEESYFTTRTYGEPESAGPSRAVRQSVTSFPDADAFHHQVHDDDLLSSSEEECKDRERPMYGRDSAYQSITHYRPVSASRSSLDLSYYPTSSSTSFMSSSSSSSSWLTRRAIRPENRAPGAGLGQDRQVPLWGQLLLFLVFVIVLFFIYHFMQAEEGNPF

The variants in this assay derive from B1. Conditions: with lmna_human LMNA.
Q133H: the “effect of a mutation on the interaction” value is reported as “with no effect”.
